This is an account of results in article PMC13538652.

In this series the target is T1, GZF1-Flag (UniProt Q4VBD9 1-706).
T1 sequence: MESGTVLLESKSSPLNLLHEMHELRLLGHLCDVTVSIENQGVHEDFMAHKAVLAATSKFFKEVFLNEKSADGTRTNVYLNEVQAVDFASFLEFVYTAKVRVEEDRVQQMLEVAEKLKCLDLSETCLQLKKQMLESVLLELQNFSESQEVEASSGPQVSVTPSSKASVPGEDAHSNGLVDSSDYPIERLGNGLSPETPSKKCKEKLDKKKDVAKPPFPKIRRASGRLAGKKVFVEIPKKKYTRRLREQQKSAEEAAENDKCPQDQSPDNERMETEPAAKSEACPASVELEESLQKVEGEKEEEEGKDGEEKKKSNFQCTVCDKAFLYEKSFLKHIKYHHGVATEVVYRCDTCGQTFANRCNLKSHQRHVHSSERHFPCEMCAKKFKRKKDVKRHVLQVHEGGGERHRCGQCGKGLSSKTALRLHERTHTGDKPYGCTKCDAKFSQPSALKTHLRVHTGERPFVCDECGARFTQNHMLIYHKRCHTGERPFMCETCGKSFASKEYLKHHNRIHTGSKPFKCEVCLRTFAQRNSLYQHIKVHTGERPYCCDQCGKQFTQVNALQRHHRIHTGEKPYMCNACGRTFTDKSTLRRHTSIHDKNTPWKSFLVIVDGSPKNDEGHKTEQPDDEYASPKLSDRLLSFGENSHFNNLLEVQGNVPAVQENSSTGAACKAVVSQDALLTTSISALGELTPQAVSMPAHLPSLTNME
Briefly: PBM.

B1: Gzf1_bs_unmethylated (structured_DNA)
DNA: GAGGCCATTACGGTAATGCCTCCTGGCATTACCGTAATGGCCTCACACTC
As for B1, the binding result is given as “binds”.
